In paper PMC4434323:

Tests used:
[1] = target: T1, elt-6 (F52C12.5) (Caenorhabditis elegans) (UniProt G5EGN3)
T1 sequence: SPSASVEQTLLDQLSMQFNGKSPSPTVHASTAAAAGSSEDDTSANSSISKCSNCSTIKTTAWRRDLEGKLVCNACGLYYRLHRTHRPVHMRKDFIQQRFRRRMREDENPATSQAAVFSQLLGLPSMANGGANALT

[2] = target: T2, elt-7 (C18G1.2) (Caenorhabditis elegans) (UniProt O61924)
T2 sequence: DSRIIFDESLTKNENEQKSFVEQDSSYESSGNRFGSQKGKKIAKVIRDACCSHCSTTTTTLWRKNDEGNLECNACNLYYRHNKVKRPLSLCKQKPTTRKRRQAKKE

[3] = target: T3, daf-19 (F33H1.1) (Caenorhabditis elegans) (UniProt Q09555)
T3 sequence: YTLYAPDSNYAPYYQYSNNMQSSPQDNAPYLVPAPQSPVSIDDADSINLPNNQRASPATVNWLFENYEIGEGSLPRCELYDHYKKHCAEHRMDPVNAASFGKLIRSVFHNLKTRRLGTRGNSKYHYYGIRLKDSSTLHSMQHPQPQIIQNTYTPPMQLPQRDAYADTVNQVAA

[4] = target: T4, daf-12 (F11A1.3) (Caenorhabditis elegans) (UniProt G5EFF5)
T4 sequence: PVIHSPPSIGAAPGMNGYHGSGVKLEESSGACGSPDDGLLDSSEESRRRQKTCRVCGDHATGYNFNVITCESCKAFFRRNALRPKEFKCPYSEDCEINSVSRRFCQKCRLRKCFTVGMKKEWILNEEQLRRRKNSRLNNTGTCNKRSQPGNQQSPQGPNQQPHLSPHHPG

[5] = target: T5, mnm-2 (C10A4.8) (Caenorhabditis elegans) (UniProt Q17895)
T5 sequence: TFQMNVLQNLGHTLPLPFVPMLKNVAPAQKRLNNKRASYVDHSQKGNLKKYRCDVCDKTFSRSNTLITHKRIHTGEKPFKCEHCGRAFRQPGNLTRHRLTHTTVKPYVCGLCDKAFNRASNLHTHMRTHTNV

[6] = target: T6, nhr-66 (T09A12.4) (Caenorhabditis elegans) (UniProt H2KYJ8)
T6 sequence: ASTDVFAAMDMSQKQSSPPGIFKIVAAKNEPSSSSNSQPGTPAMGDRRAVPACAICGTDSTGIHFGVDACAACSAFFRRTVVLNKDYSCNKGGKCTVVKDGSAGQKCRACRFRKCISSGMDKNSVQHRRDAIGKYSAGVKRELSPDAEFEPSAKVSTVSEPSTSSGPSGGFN

[7] = target: T7, nhr-70 (Y51A2D.17) (Caenorhabditis elegans) (UniProt G5EEL3)
T7 sequence: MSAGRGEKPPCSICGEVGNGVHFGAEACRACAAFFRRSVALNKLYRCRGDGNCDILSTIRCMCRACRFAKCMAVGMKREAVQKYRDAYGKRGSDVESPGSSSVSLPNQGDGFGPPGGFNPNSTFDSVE

[8] = target: T8, odr-7 (T18D3.2) (Caenorhabditis elegans) (UniProt P41933)
T8 sequence: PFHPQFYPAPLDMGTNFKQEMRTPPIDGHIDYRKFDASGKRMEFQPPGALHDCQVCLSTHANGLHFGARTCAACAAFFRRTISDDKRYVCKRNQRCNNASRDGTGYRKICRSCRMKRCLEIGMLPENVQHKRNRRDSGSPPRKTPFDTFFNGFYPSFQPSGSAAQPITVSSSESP

[9] = system: T9, slr-2 (Y59A8B.13) (Caenorhabditis elegans)
T9 sequence: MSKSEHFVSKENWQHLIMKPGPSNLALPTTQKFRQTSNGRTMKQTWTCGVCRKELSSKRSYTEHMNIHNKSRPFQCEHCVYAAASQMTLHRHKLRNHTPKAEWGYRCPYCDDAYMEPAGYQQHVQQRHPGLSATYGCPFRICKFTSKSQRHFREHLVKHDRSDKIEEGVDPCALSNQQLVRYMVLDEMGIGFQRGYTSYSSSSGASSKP

[10] = target: T10, nhr-5 (Y73F8A.21) (Caenorhabditis elegans) (UniProt Q9NA51)
T10 sequence: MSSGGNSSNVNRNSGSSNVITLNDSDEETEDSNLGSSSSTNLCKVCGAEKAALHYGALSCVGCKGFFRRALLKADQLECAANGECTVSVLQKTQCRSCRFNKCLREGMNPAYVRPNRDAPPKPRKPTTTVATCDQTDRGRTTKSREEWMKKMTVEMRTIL

[11] = target: T11, let-381 (F26B1.7) (Caenorhabditis elegans) (UniProt P91278)
T11 sequence: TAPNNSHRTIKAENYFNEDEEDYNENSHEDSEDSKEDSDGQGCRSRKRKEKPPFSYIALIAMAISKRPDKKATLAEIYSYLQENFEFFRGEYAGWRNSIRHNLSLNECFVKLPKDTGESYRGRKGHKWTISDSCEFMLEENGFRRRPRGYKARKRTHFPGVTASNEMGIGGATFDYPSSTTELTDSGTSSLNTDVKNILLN

**Q.** For “CGTTATCA (double strand) [8-mer CGTTATCA]”, which binding signal (PBM E-score (-0.5 to 0.5)) [1] is on record?
**A.** 0.493

**Q.** What about the binding signal (PBM E-score (-0.5 to 0.5)) [2] of the same sequence?
**A.** 0.478

**Q.** With “CGTTGCTA (double strand) [8-mer CGTTGCTA]” as the sequence, how does the binding signal (PBM E-score (-0.5 to 0.5)) [3] read?
**A.** 0.489

**Q.** Which binding signal (PBM E-score (-0.5 to 0.5)) [3] does the source give for “CTAGCAAC (double strand) [8-mer CTAGCAAC]” here?
**A.** 0.484

**Q.** Which binding signal (PBM E-score (-0.5 to 0.5)) [1] does the source give for “CTGATAAC (double strand) [8-mer CTGATAAC]” here?
**A.** 0.493

**Q.** And the binding signal (PBM E-score (-0.5 to 0.5)) [2]?
**A.** 0.467

**Q.** For “CTGATAAG (double strand) [8-mer CTGATAAG]”, which binding signal (PBM E-score (-0.5 to 0.5)) [1] is on record?
**A.** 0.496

**Q.** And the binding signal (PBM E-score (-0.5 to 0.5)) [2]?
**A.** 0.472

**Q.** For “GAAGTGCA (double strand) [8-mer GAAGTGCA]”, which binding signal (PBM E-score (-0.5 to 0.5)) [4] is on record?
**A.** 0.491

**Q.** And the binding signal (PBM E-score (-0.5 to 0.5)) [5]?
**A.** 0.459

**Q.** Which binding signal (PBM E-score (-0.5 to 0.5)) [6] does the source give for “GACTACAA (double strand) [8-mer GACTACAA]” here?
**A.** 0.488

**Q.** And the binding signal (PBM E-score (-0.5 to 0.5)) [7]?
**A.** 0.495

**Q.** What about the binding signal (PBM E-score (-0.5 to 0.5)) [8] of the same sequence?
**A.** 0.476

**Q.** And the binding signal (PBM E-score (-0.5 to 0.5)) [9]?
**A.** 0.468

**Q.** Which binding signal (PBM E-score (-0.5 to 0.5)) [10] does the source give for “GAGTACAC (double strand) [8-mer GAGTACAC]” here?
**A.** 0.461

**Q.** Which binding signal (PBM E-score (-0.5 to 0.5)) [5] does the source give for “GATGCGCA (double strand) [8-mer GATGCGCA]” here?
**A.** 0.484

**Q.** “GATGCGCC (double strand) [8-mer GATGCGCC]” was tested. Which binding signal (PBM E-score (-0.5 to 0.5)) [5] did it give?
**A.** 0.464

**Q.** Which binding signal (PBM E-score (-0.5 to 0.5)) [5] does the source give for “GATGTGCA (double strand) [8-mer GATGTGCA]” here?
**A.** 0.457

**Q.** Which binding signal (PBM E-score (-0.5 to 0.5)) [5] does the source give for “GCACATCC (double strand) [8-mer GCACATCC]” here?
**A.** 0.46

**Q.** Which binding signal (PBM E-score (-0.5 to 0.5)) [5] does the source give for “GCCGTTCC (double strand) [8-mer GCCGTTCC]” here?
**A.** 0.469

**Q.** How did the binding signal (PBM E-score (-0.5 to 0.5)) [5] turn out when “GCGCATCA (double strand) [8-mer GCGCATCA]” was run?
**A.** 0.47

**Q.** “GCGCATCC (double strand) [8-mer GCGCATCC]” was tested. Which binding signal (PBM E-score (-0.5 to 0.5)) [5] did it give?
**A.** 0.487

**Q.** With “GCGGATCC (double strand) [8-mer GCGGATCC]” as the sequence, how does the binding signal (PBM E-score (-0.5 to 0.5)) [5] read?
**A.** 0.472

**Q.** “GCGTATCC (double strand) [8-mer GCGTATCC]” was tested. Which binding signal (PBM E-score (-0.5 to 0.5)) [5] did it give?
**A.** 0.454

**Q.** “GCTGATAA (double strand) [8-mer GCTGATAA]” was tested. Which binding signal (PBM E-score (-0.5 to 0.5)) [1] did it give?
**A.** 0.493

**Q.** What about the binding signal (PBM E-score (-0.5 to 0.5)) [2] of the same sequence?
**A.** 0.471

**Q.** How did the binding signal (PBM E-score (-0.5 to 0.5)) [3] turn out when “GGTTGCTA (double strand) [8-mer GGTTGCTA]” was run?
**A.** 0.493

**Q.** “GTAAACAC (double strand) [8-mer GTAAACAC]” was tested. Which binding signal (PBM E-score (-0.5 to 0.5)) [11] did it give?
**A.** 0.452

**Q.** How did the binding signal (PBM E-score (-0.5 to 0.5)) [3] turn out when “GTAACTAA (double strand) [8-mer GTAACTAA]” was run?
**A.** 0.465

**Q.** For “GTAGCAAC (double strand) [8-mer GTAGCAAC]”, which binding signal (PBM E-score (-0.5 to 0.5)) [3] is on record?
**A.** 0.46

**Q.** Which binding signal (PBM E-score (-0.5 to 0.5)) [3] does the source give for “GTTGCTAA (double strand) [8-mer GTTGCTAA]” here?
**A.** 0.487

**Q.** For “GTTTATAA (double strand) [8-mer GTTTATAA]”, which binding signal (PBM E-score (-0.5 to 0.5)) [11] is on record?
**A.** 0.459

**Q.** How did the binding signal (PBM E-score (-0.5 to 0.5)) [3] turn out when “TAGCAACA (double strand) [8-mer TAGCAACA]” was run?
**A.** 0.474

**Q.** How did the binding signal (PBM E-score (-0.5 to 0.5)) [11] turn out when “TATAAACA (double strand) [8-mer TATAAACA]” was run?
**A.** 0.483

**Q.** With “TATGATAA (double strand) [8-mer TATGATAA]” as the sequence, how does the binding signal (PBM E-score (-0.5 to 0.5)) [2] read?
**A.** 0.457

**Q.** With “TGATAACA (double strand) [8-mer TGATAACA]” as the sequence, how does the binding signal (PBM E-score (-0.5 to 0.5)) [1] read?
**A.** 0.492

**Q.** What about the binding signal (PBM E-score (-0.5 to 0.5)) [2] of the same sequence?
**A.** 0.458
